Laboratory results reported in paper PMC7749421, “Functional expression of human prostaglandin E2 receptor 4 (EP4) in E. coli and characterization of the binding property of EP4 with Gα proteins” (Biochemistry and Biophysics Reports, 2020).

Assays:
[1] = biological target: T1, human prostaglandin E2 receptor 4 (EP4) (Homo sapiens, UniProt P35408); assay: biochemical
T1 construct: gene PTGER4

[2] = biological target: Gαs1 (alpha subunit of Gs protein) (UniProt P63092); assay: ELISA; Gα (10 μg/ml) immobilised in a high-binding 96-well plate, blocked with 5% skimmed milk; 5-1000 nM P9-EP4 in sarkosyl or in APG added; detected with anti-P9 antibody, HRP anti-mouse IgG and TMB; 25 °C
[3] = biological target: Gαi2 (alpha subunit of Gi protein) (UniProt P04899); assay: as above
[4] = biological target: Gαi3 (alpha subunit of Gi protein) (UniProt P08754); assay: as above
[5] = biological target: Gαi1 (alpha subunit of Gi protein) (UniProt P63096); assay: as above
Sequence of Gαi1 (alpha subunit of Gi protein) (P63096 whole entry): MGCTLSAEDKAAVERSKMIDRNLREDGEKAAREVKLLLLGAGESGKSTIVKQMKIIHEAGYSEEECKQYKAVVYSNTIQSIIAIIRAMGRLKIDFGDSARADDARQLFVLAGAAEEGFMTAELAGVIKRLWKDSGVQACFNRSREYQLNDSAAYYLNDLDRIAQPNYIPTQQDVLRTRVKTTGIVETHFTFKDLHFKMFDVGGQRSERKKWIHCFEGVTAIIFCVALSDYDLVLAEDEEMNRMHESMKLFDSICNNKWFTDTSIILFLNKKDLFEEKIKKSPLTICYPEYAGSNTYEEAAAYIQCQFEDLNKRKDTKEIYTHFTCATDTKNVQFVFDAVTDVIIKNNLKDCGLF

Sequence of P9-EP4 (human prostaglandin E2 receptor 4, amino acids 1-354, fused to the C-terminus of the P9 envelope protein of phage phi6, with a C-terminal His6 tag) (P35408 1-354 limits assumed): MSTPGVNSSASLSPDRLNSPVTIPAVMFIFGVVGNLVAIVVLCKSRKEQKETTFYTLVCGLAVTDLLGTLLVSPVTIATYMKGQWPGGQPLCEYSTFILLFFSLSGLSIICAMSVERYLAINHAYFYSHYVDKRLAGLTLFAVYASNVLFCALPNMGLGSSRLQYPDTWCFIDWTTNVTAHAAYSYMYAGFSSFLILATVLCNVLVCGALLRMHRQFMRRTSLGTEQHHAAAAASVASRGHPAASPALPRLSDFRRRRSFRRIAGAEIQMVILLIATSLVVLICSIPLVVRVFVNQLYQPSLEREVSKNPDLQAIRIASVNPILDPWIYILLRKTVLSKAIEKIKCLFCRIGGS
Sequence of Gαs1 (alpha subunit of Gs protein) (P63092 whole entry): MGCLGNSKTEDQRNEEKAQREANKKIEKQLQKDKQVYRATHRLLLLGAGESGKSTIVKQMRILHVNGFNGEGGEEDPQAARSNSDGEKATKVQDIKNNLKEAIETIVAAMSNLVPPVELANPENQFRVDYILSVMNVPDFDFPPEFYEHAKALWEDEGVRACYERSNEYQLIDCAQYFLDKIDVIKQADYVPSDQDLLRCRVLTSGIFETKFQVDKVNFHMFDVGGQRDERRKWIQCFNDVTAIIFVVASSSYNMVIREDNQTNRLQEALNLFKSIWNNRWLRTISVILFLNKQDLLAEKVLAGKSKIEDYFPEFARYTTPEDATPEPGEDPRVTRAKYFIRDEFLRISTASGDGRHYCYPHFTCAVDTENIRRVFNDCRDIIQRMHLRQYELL
Sequence of Gαi2 (alpha subunit of Gi protein) (P04899 whole entry): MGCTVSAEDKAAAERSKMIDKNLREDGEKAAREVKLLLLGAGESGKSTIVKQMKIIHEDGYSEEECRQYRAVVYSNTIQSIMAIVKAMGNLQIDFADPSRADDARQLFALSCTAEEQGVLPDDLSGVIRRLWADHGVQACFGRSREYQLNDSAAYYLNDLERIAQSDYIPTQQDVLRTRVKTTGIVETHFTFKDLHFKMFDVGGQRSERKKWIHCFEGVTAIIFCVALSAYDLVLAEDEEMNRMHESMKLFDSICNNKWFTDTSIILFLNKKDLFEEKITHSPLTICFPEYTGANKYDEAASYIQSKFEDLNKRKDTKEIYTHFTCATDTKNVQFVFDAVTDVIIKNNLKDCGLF
Sequence of Gαi3 (alpha subunit of Gi protein) (P08754 whole entry): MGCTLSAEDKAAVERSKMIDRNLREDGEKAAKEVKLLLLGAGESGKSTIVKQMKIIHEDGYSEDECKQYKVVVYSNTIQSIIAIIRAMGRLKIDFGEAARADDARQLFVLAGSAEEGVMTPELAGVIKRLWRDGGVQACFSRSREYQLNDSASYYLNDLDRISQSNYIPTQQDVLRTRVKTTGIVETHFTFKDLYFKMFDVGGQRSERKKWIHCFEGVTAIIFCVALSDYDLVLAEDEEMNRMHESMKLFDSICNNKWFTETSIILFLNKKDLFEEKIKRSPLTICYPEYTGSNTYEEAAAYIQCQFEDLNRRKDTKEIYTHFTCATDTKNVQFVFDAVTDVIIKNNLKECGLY
T1 sequence (P35408 1-354): as the sequence (P35408 1-354 limits assumed) above

Compound | Kd [1] | Kd [2] | Kd [3] | Kd [4] | Kd [5]
CC(C(=O)Nc1cc(C#N)ccc1CCCC(=O)O)c1ccc(F)c2ccccc12 (centres unmarked) [ONO-AE3-208] | 680 ± 150 nM | – | – | – | –
P9-EP4 (human prostaglandin E2 receptor 4, amino acids 1-354, fused to the C-terminus of the P9 envelope protein of phage phi6, with a C-terminal His6 tag) (from UniProt P35408 1-354) | – | 88 nM | 175 nM | 214 nM | 50 nM
